In the nanobody polyreactivity screen of Harvey et al. (2022):

Test: yeast display, Sf9 membrane polyspecificity reagent, FACS + sequencing; frameworks hold sequencing errors
Summary of the method: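 Nanobodies from a synthetic yeast display library (Saccharomyces cerevisiae BJ5465), induced 36–48 hours with galactose, were stained 1 hour at 4 °C with 10% biotinylated, detergent-solubilized Sf9 membrane reagent, enriched on streptavidin microbeads, then FACS-sorted. Anti-HA (expression) and streptavidin (reagent binding) fluorescence set low and high (top ~1%) gates. Polyreactivity labels come from the gate of origin. Genes were colony-PCR amplified, MiSeq 2 × 250 sequenced and filtered by CDR length.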

Sequence	polyreactivity (PSR sort gate)
QVQLVQSGGGLVQAGGSLRLICAASGSIFLYYAMGWYRQAPAKERELVAGIRRGGRKNYADSVKGRFTISRDNSKNTVYLQLNSLKPEDTGVYYCAKGGYWGQCTQVTVSS	high polyreactivity
QVQLVESGGGLVQAGGSLRLSCAASGSIFPVYAMGWYRQSPGKERELVADITYTTGSTYYADSVKGRFTISRDNAKNTVYLQMNSLKPEDSAVYYCAKDFGFQSDSWGQGTQVTVSS	low polyreactivity
QVQLVESGGGLVQAGGSLLLSCAASGRIFDLNAMGWYRQAPGKERELVAAITNTGSTNYADSVKGRFTISRDNAKNTVYLQMNSLKPEDTAVYYCARTYWLRYYGYRDDEYDYWGQGTQVTVSS	low polyreactivity
QVQLVESGGGLVQAGGSLRLSCAASGNILEGYTMGWYRQAPGKERELVATISGRGGSTYYADSVKGRFTISRDYAKNTVYLQMHSLKPEDTAVYYCNALPWALYDSTSIYYYWGQGTQVTVSS	low polyreactivity
QVQLAESGGGLVQAGGSLRLSCAASGSTSAKNVMGWYRQPPGTERELVAAISRSGGRTYYADSVKGRFTISRDNAKNTVYLQMNSLKPVDTAVYYCYTRYVKGFYWGQGTLVTVSS	high polyreactivity
QVQLVESGAGLVHAGGSLRLSCAASGLIYVNAMGWYRQAPGKERDFVAAITYSTGSTYYADSVKGRYTISRDNAKNTVYLQMNSLKPEDSAVYYCATDEHSSGRTPYDYWVQGTQVTVSS	low polyreactivity
QVQLVESGGGLVQAGGSLRLSCAASGSISYVYAMGWYRQAPGKERELFAAISYSDGSTYYADSVKGRFTISRDNAKNTVYLQMISLKPEDTAVYYCAADAVYPFPYYWEYYYWGQGTQVTVSS	high polyreactivity
QVQLVESGGGLVQAGGSLRLSCAASGSIFSFYTMGWYRQAPGKERELVASSTTYADSVKGRFTISRDNAKNTVYLQMNSLKPEDTAVYYCAAEYYSSITGWYYYWGQGTQVTVSS	low polyreactivity
QVQLVESGGGLDQAGGSLRLSCAASGSTFGYYAMGWYREAPGKERELVASITSDGSTNYADSVKGRFTISRDNAKNTVYLQMNSLKPEDTAVYYCAAYVWRYWHEYDYWGQGTLVTVSS	low polyreactivity
QVQLVESGGGLVQAGGSLRLSCAASGRTLLPNAMGWYRQAPGKERELVADISTSDGSTRYADSVKGRFTISRDNAKNTVYLQMNSLKPEDTAVYYCAAGSEYYSSGGVRFSFYYWGQGTQVTVSS	low polyreactivity
QVQLVESGGGLVQAGGSLRLSCAASGSIFNSNAMGWYRQAPGKERELVAVISWSDGSTRYADSVKGRFTISRDNAKNTVYLQMNSLKPEDTAVYYCNADLVYYYRQEVDYWGQGTEVTVSS	low polyreactivity
QVQLVESGGGLVQAGGSLRLSCAASGFIFGKYAMGWYRQAPGKEREFVAAITGNGGSTYYADSVKGRFTISRDNAKNTVYLQMNSLKPEDTAVYYCNADRGYRRRSGMDYWGQGTQVTVSS	low polyreactivity
QVQLVESRGGLVQAGGSLRLSCAASGRILYVNDMGWYRQAPRKERELVAAISWRGGRTYYADSVKGRFTISRDNAKNTVYLQMNSLKPEDTAVYYCAARARGGYQRDYYWGQGTQVTVSS	high polyreactivity
QVQLVESGGGLVQAGGSLRLSCAASGFTFWLYAMGWYRQAPGKERELVAAITSGGGTYYADSVKGRFTISRDNEKNTVYLQMNSLKPEDTAVYYCAAEWVRDYEQGVSSFGFYYWGQGTQVTVSS	low polyreactivity
QVQLVESGGGLVHAGGSLRLSCAASGSTFLPNVMGWYRQAPGTERELVAANSSRGGRTYYADSVKGRFTISRDNAKNTVYLQMNSLKPEDTAVYYCAAYTRDTTGSAGIYRDDYWGQGTQVTVSS	high polyreactivity
QVQLVESGGGLVQAGGSLRLSCAASGSTFGNNAMGWYRQAPGKERELVATIDDTTVSTNYADSVKGRFTISRDNAKNSVYLQMNSLKPEDTAVYYCAADDVDGSPYDYWGQGTQVTVSS	low polyreactivity
QVQLVESGGGLVQAGGSLRLSCAASGSIFYYNAMGWNRQAPGKERELVAASTTRGGSTYYADSVKGRFTISRDNAKNTVYLQMYSLKPVDTEVYYCARSSRGKLDYWGQGTQVTVSS	low polyreactivity
QVQLVESGGGLFQAGGSLRLSCAASGFTFDYYAMGWYRQAPGKERELVADINRSGGSSYYADSVKGRFTISRDNAKNTVYLQMNSLKPEDTAVYYCNARVTPFFYHYPRDYYYWGQGTQVTVSS	high polyreactivity
QVQLVESGGGLVQAGGSLRLSCAASGSTFTTYAMGWYRQAPGKERELVAAISRTGGVTYYADTVKGRFTISRDNGKKTVYLQMNSLKPDDTAVYYCNAGLFRGAQFDYWGLGTQVTVSS	high polyreactivity
QVQLVESGGGLVQAGGSLRLSCAAYGITFKGNAMGWYRQAPGKERELVAAIRWRAGRTYYADSVKGRFTISRDNAKNTVYLQMNSLKPEDTAVYDCAATYSYLWPEYDYWGQGTQVTVSS	high polyreactivity
QVQLVESGGGLVQAGGSLRLSCAASGSIFHGYAMGWYRRAPGKERELVAAITYSGGRTYYADSVKGRFTISRDNAKNTVYLQMNSLKPEDTAVYYCAALTRRVKKYDYWGQGTQVTVSS	high polyreactivity
QVQLVESGGGLVQAGGSLRLSCAASGRTFKLYGMGWYRQAPVKEREFVAAITQGGGSTFYADSVKGRFTISRDNSKNTVYLQMNSLKPEDTAVYYCAARTQIFSRYRGFYSWGQGTQVTVSS	high polyreactivity

Sequence	polyreactivity (PSR sort gate)
QGQLVESGGGLVQAGGSLRLSCAASGRTFTAYAMGWYRQAPRKERELVASISSGSSTYYADSVKGRFTISRDNAKYTVYLQMNSLKPEDTAVYYCAARDGYRYYKGKRMGYWGQGTQVTVSS	high polyreactivity
QVQLVESGGGLVQAGGSLRLSCAASGFTFWFNAMGWYRQSRGTERELVPTIRRSGGTTYYADSVKGRFTISRDKAKNTVYLQMNSLKPEDTAVYYCAADDYYYPGTVYYFTPGYNYWGQGTQVTVSS	low polyreactivity
QVQLVESGGGLVQAGGSLRLSCAASGSILYFNAMGLYRQAPGKERELVATITSGGSTNYADSVKWRFTISRDNAKNTVYLQMNSQKPEDTAVYYSAADYSTRKADYWVQGTQVTVSS	low polyreactivity
QVQLVESGGGLVQAGGSLRLSCAASGFIIDRNAMGWYRQAAGKERELVAAITSRGGSTYYADSVKGRFTISRDNAKNTVYLQMNSLKPEDTAVYYCNAGRRVSTYGYWGPGTQVTVSS	high polyreactivity
QVQLVESGGGLVQAGGSLRLSCAASGRTLIVNTMGWYRQAPGKEREFVAAIFSGASTYYADSVKGRFTISRDNAMNTDYLQINSVKPEDTAVYYCAAAVFRWSRYDYWGQGTQVTVSS	low polyreactivity
QVQLVESGGGLVQAGGSLRLSCAASGSILDIYAMGWYRQAPGKERELVAGISTSGGSTYYADSVKGRFTISRDNAKNTVYLQMNSLNPEDTAVYYCAKDYGYQGLTRTLYCAYLEYDYWGQGTQVTVSS	low polyreactivity
QVQLVESGGGLVQAGGSLRLSCAASGSNFDTYAMGWYRQAPGKESELVAAITRRAGSTYYADSVKGRFTISRDNAKYTVYLQMNSLKPEDTAVYYCAADFRYPDNYGGYDYWGQGTQVTVSS	low polyreactivity
QVKLVESGGGLVQAGGSLRLSCASSGFTFFHYAKGWYRQAPGKERELVAAISWSGGSTYYADTVKGRFTISRDNAKNTVYLQMNSLKPEDTAVYYCAADGGSTAFDYWGQGTQVTVSS	low polyreactivity
QVQLVESGGGLVQAGGSLRLSCAASGITFGYYARGGYRQAPGNERELVAAISRNGGSTYYADSVKGRFTISRDNAKNTVYLQMNSLKPEDTAVYYCNARGNQAVIGYEYWGQGTQVTVSS	high polyreactivity
QVQLVESGGGLVQAGGSLRLSCAASGSIFDDFAMGWYRQAPGKERELVAAISWSGGRTYYADSVKGRFTISRDNAKNTVYLHMNSLKPDDTAVYYCAATTGVRSRRYYYWGQGTQVTVSS	low polyreactivity
QVQLVESGGGLVQAGGSLSLSCAASGFTFAFYAMGWYRQAPGKERELVAAISWDGVTTYYADSVKGRFTISRDNAKNTVYLQMNSLKPEDTAVYYCAADYPDYAGSFWPSGMYYWGQGTQVTVSS	low polyreactivity
QVQLVESGGGLVQAGGSLRLSCAASGRIFGNYAMGWYRQAPGKERELVAAISNGSGRTSYADSVKGRFTISRDNAKNTVYLQMNSLKPEDTAVYYCAVLRPKSRKHTVGFCYWGQGTQVTVSS	high polyreactivity
QVQLVESGGGLVQAGGSLRLSCAASGRIFYIYTMGWYILAPGKERELVAGITRAGSTNYADSVKGRFTISRDNAKNTVYLQMNSLKPEDTAVYYSNAYIWIYGFDYCGQGTQVTVSS	high polyreactivity
QVQLVESGGGLVQAGGSLRLSCAASGRTLLLNTMGWYRQAPGKERELVAAISWRDGSTYYADSVKGRFTISRDNAKNTVYLQMNSLKPEDTAVYYCNARLSGRSPYDLRFDYWGQGTQVTVSS	low polyreactivity
QDQLVESGGGLVQAGGSLRLSCAASVRIFWLYAMGWYRQAPGKERELVAVISWSGGTTYYADSVKGRFTISRDNAKNTVYLQMNSLKPEDTAVYSCAAQVGFYTNYREFDYWGQGTQVTVSS	low polyreactivity
LVHLVESGGGLVQAGGSLRLSCAASGITFTGYAMGWYRQAPGKERELVAAITWSSGSTYYADSVKGRFTISRDNAKNTVYLQMNSLKPEDTAVYYCNAGYWYDGPDYIPEYDYWGQGTQVTVSS	low polyreactivity
QVQLVESGGGLVQAGGSLRLSCAASGSTFGVYAMGRYRQAPGKERELVAAISYGDSTNYADSVKGRFTISRDNAKNTVYLQMNSLIPEDTAVYYCNALELYAAYPEYYLYYWYDYWGQGTQVNVSS	high polyreactivity
QFQLVESGGGLVQAGCSLRLSCAASGLTVGSNTMGWDRQAPGKERELVAAITSNGGSTYYADSVKGRFTISRDNAKNTVYLQMNSLIPEDTAVYYCAADDRGLISRRGYFYLSYDYWGQGTQVTVSA	low polyreactivity
QVQLVESGGGLVQAGGSLRLSCAASGSIFVEYDMGWYIQAPGKERELVADISGTGNTYYADSVKGRFTISRDNAQNTVYLQMNSLKPEDTSVYYCAAGTYFTNYWSPFVWYDYWGQGTQVTVSS	high polyreactivity
QVQLVESGGGLVQAGGSLRLSCAASGFTFVGNAMGWYRQAPGQERELVAAITRGGSTYYADSVKGRFTISRDNAKNTVYLQMNSLKPEDTAVYYCNAELPVHWSWYDYWGQGTQVNVSS	low polyreactivity
QVQLVESGGGLVQAGGSLRLSCAASGSIFTLYVMGWYRQAPGKERELVAAITWSGGSTYYADSVKGRFTISRDNAKNTVYLQMNSLKTEDPAVYYCNADVRWDSQDYYYWGQGTQVTVSS	low polyreactivity
